Source: paper PMC2119780

Target: fibronectin receptors (alpha5beta1) on the adherent CHO cell line (Chinese hamster (endogenous in CHO))
Assay: radioligand binding

human plasma fibronectin (ligand; labeled with 125Iodine (modified Chloramine-T procedure) in the binding assays)
Kd: 95 nM
